{"source": "paper PMC11315935", "about": "“Multi-layered heterochromatin interaction as a switch for DIM2-mediated DNA methylation” (Nature Communications, 2024)", "molecules": {"B1": {"name": "HP1W98A: HP1 with H3K9me3-cage mutation W98A (protein)", "chain": "MPYDPSALSDEEAASSVELDTRSATSSSKKQSRDKKSVKYTIPEPEDFEDEEQNGDGADEGGEDDEEGDEEEEDVYVVEKILDHMLNDDNEPLFLVKAEGYEKKSDQTWEPEDTLIEGASERLKEYFTKIGGREKIFEASAAAQKIKKRGRPSSNSGTPQASSNKRSRKNGDHPLNSEEPQTAKNAAWKPPAGSWEEHIAQLDACEDEDTHKLMVYLTWKNGHKTQHTTDVIYKRCPQKMLQFYERHVRIIKRDPDSEDREGSVSQ", "modifications": "left off: His6, N-terminal, cleaved | MBP, N-terminal, cleaved", "notes": "HP1 with H3K9me3-cage mutation W98A"}, "B2": {"name": "DIM2W261A/W581A: DIM2 with W261A/W581A double mutation (protein)", "chain": "MDSPDRSHGGMFIDVPAETMGFQEDYLDMFASVLSQGLAKEGDYAHHQPLPAGKEECLEPIAVATTITPSPDDPQLQLQLELEQQFQTESGLNGVDPAPAPESEDEADLPDGFSDESPDDDFVVQRSKHITVDLPVSTLINPRSTFQRIDENDNLVPPPQSTPERVAVEDLLKAAKAAGKNKEDYIEFELHDFNFYVNYAYHPQEMRPIQLVATKVLHDKYYFDGVLKYGNTKHYVTGMQVLELPVGNYGASLHSVKGQIAVRSKHNAKKEIYYLLKKPAFEYQRYYQPFLWIADLGKHVVDYCTRMVERKREVTLGCFKSDFIQWASKAHGKSKAFQNWRAQHPSDDFRTSVAANIGYIWKEINGVAGAKRAAGDQLFRELMIVKPGQYFRQEVPPGPVVTEGDRTVAATIVTPYIKECFGHMILGKVLRLAGEDAEKEKEVKLAKRLKIENKNATKADTKDDMKNDTATESLPTPLRSLPVQVLEATPIESDIVSIVSSDLPPSENNPPPLTNGSVKPKAKANPKPKPSTQPLHAAHVKYLSQELVNKIKVGDVISTPRDDSSNTDTKWKPTDTDDHRAFGLVQRVHTAKTKSSGRGLNSKSFDVIWFYRPEDTPCCAMKYKWRNELFLSNHCTCQEGHHARVKGNEVLAVHPVDWFGTPESNKGEFFVRQLYESEQRRWITLQKDHLTCYHNQPPKPPTAPYKPGDTVLATLSPSDKFSDPYEVVEYFTQGEKETAFVRLRKLLRRRKVDRQDAPANELVYTEDLVDVRAERIVGKCIMRCFRPDERVPSPYDRGGTGNMFFITHRQDHGRCVPLDTLPPTLRQGFNPLGNLGKPKLRGMDLYCGGGNFGRGLEEGGVVEMRWANDIWDKAIHTYMANTPDPNKTNPFLGSVDDLLRLALEGKFSDNVPRPGEVDFIAAGSPCPGFSLLTQDKKVLNQVKNQSLVASFASFVDFYRPKYGVLENVSGIVQTFVNRKQDVLSQLFCALVGMGYQAQLILGDAWAHGAPQSRERVFLYFAAPGLPLPDPPLPSHSHYRVKNRNIGFLCNGESYVQRSFIPTAFKFVSAGEGTADLPKIGDGKPDACVRFPDHRLASGITPYIRAQYACIPTHPYGMNFIKAWNNGNGVMSKSDRDLFPSEGKTRTSDASVGWKRLNPKTLFPTVTTTSNPSDARMGPGLHWDEDRPYTVQEMRRAQGYLDEEVLVGRTTDQWKLVGNSVSRHMALAIGLKFREAWLGTLYD", "modifications": "left off: His6, N-terminal, cleaved | MBP, N-terminal, cleaved", "notes": "DIM2 with W261A/W581A double mutation"}, "B3": {"name": "DIM2N1050A: DIM2 with mutation in the bridging loop (N1050A) (protein)", "chain": "B2 chain with A261W, A581W, N1050A", "modifications": "left off: His6, N-terminal, cleaved | MBP, N-terminal, cleaved"}, "B4": {"name": "DIM2K362A: DIM2 with H3K9me3-binding site mutation in the RFTS domain (K362A) (protein)", "chain": "B2 chain with A261W, K362A, A581W", "modifications": "left off: His6, N-terminal, cleaved | MBP, N-terminal, cleaved"}, "B5": {"name": "DIM2E649A: DIM2 with mutation in the BAH1 domain (E649A) (protein)", "chain": "B2 chain with A261W, A581W, E649A", "modifications": "left off: His6, N-terminal, cleaved | MBP, N-terminal, cleaved"}}, "key": {"[1]": {"test_system": "DIM2", "assay": "In vitro DNA methylation assay: effect of HP1 and H3 peptides on DIM2 activity", "assay_type": "biochemical, Neurospora Crassa", "parameters": "DNA methylation activity of DIM2 in presence of HP1, WT or W98A: unit not given beside the values", "conditions": "for DNA methylation activity of DIM2 in presence of HP1, WT or W98A: Sup Fig. 1e, (CTA)12/(TAG)12 DNA duplex, 1.0 µM DIM2, 2 µM HP1, 30 °C, 30 min, pH 8.0", "description": "In vitro DNA methylation assay was performed in a 20-µL reaction mixture. For the substrate specificity assay, the following DNA duplexes were used as substrates: CG DNA (Upper strand: 5’-[…]-3’), hemimethylated CG DNA (Upper strand: 5’-TAAATTTXGATTAATAAT-3’, X = 5-methylcytosine; Lower strand: 5’-[…] -3’), CHG DNA (Upper strand: 5’-[…]-3’), and CHH DNA (Upper strand: 5’-[…]-3’). The reaction mixture contains 0.25 µM DIM2, 1.0 µM DNA duplex, 1.0 µM synthesized H3K9me3 peptide (residues 1-24 of H3 plus a C-terminal tryptophan), 0.5 µM HP1, and 0.56 µM S-adenosyl-L-[methyl-^3H] methionine with a specific activity of 18 Ci/mmol (PerkinElmer) in buffer containing 50 mM Tris-HCl (pH 8.0), 100 mM NaCl, 0.05% β-mercaptoethanol, 5% glycerol, and 200 µg/mL BSA. For the rest of the DNA methylation assay, each reaction mixture contains 1.0 µM DIM2, […] methionine with a specific activity of 18 Ci/mmol (PerkinElmer) in buffer containing 50 mM Tris-HCl (pH 8.0), 100 mM NaCl, 0.05% β-mercaptoethanol, 5% glycerol, and 200 µg/mL BSA. In addition, 1.0 µM synthesized H3K9me3 or H3K9me0 peptide (residues 1-24 of H3 plus a C-terminal tryptophan) and/or 2 µM HP1 protein was included to evaluate the effect of H3 and HP1 regulation. The reaction mixture was incubated at 30 °C for 30 min, unless indicated otherwise, before being quenched by the addition of 5 µL of 10 mM cold SAM. After the reaction, 8 μL of the mixtures was loaded onto Hybond N nylon membrane (GE Healthcare), which was left to dry out at room temperature. The membrane was subsequently washed with 0.2 M ammonium bicarbonate (pH 8.2) two times (20 min per time), deionized water (20 min) once, and 95% ethanol (5 min) once. After air dried, the membrane carrying each sample was transferred into a vial containing 3 mL scintillation buffer (Fisher). The tritium scintillation was measured and recorded by a Beckman LS6500 counter. Each the reaction was repeated three times."}, "[2]": {"test_system": "(CTA)12/(TAG)12 36-mer DNA duplex", "assay": "In vitro DNA methylation assay of DIM2 (WT or mutant)", "assay_type": "biochemical", "parameters": "DNA methylation activity: unit not given here", "conditions": "30 min, pH 8.0; for DNA methylation activity of DIM2 (in words): 1.0 µM DIM2, 30 °C; for DNA methylation activity: Fig. 6d, H3_1-24K9me3 binding-associated mutants, 1.0 µM DIM2, 1.0 µM DNA duplex, 30 °C"}}, "note": "Residue numbers refer to the chain shown, from its start. Names may count otherwise.", "data": [{"molecule": "B1", "values": [{"measurement": "DNA methylation activity of DIM2 in presence of HP1, WT or W98A", "setting": "[1]; replicate 1", "result": 45.423}, {"measurement": "DNA methylation activity of DIM2 in presence of HP1, WT or W98A", "setting": "[1]; replicate 2", "result": 47.119}, {"measurement": "DNA methylation activity of DIM2 in presence of HP1, WT or W98A", "setting": "[1]; replicate 3", "result": 45.142}, {"measurement": "increase of activity-stimulation effect of HP1 on DIM2", "setting": "[1]; W98A vs WT HP1", "result": "~ 2 fold"}]}, {"molecule": "B2", "values": [{"measurement": "DNA methylation activity of DIM2 (in words)", "setting": "[2]", "result": "largely abolished the DNA methylation activity"}, {"measurement": "DNA methylation activity", "setting": "[2]; replicate 1", "result": 0.373}, {"measurement": "DNA methylation activity", "setting": "[2]; replicate 2", "result": 0.344}, {"measurement": "DNA methylation activity", "setting": "[2]; replicate 3", "result": 0.323}]}, {"molecule": "B3", "values": [{"measurement": "DNA methylation activity of DIM2 (in words)", "setting": "[2]", "result": "marked decrease of the DNA methylation activity"}, {"measurement": "DNA methylation activity", "setting": "[2]; replicate 1", "result": 5.118}, {"measurement": "DNA methylation activity", "setting": "[2]; replicate 2", "result": 5.385}, {"measurement": "DNA methylation activity", "setting": "[2]; replicate 3", "result": 5.072}]}, {"molecule": "B4", "values": [{"measurement": "DNA methylation activity of DIM2 (in words)", "setting": "[2]", "result": "marked decrease of the DNA methylation activity"}, {"measurement": "DNA methylation activity", "setting": "[2]; replicate 1", "result": 1.971}, {"measurement": "DNA methylation activity", "setting": "[2]; replicate 2", "result": 1.588}, {"measurement": "DNA methylation activity", "setting": "[2]; replicate 3", "result": 1.581}]}, {"molecule": "B5", "values": [{"measurement": "DNA methylation activity of DIM2 (in words)", "setting": "[2]", "result": "marked decrease of the DNA methylation activity"}, {"measurement": "DNA methylation activity", "setting": "[2]; replicate 1", "result": 3.26}, {"measurement": "DNA methylation activity", "setting": "[2]; replicate 2", "result": 3.183}, {"measurement": "DNA methylation activity", "setting": "[2]; replicate 3", "result": 3.28}]}]}
